This note sets out measurements from patent US20210087296A1 (published 2021).

The target of this test is matrix metalloproteinase-14 catalytic domain (cdMMP-14) (UniProt P50281 114-287, biotinylated with EZ-Link Sulfo-NHS-LC-Biotin for ELISA; amine-coupled to CM5 chip for SPR). Put plainly: ELISA.

B1: Fab R2C14 (Fab, V domains shown)
VH: EVQLVESGGGLVQPGGSLRLSCAASGFNIYSSSIHWVRQAPGKGLEWVASIYSYSGYTYYADSVKGRFTISADTSKNTAYLQMNSLRAEDTAVYYCARVSNRYNRSSASIAGLQLFRPYGMDYWGQGTLVTVSS
VL: DIQMTQSPSSLSASVGDRVTITCRASQSVSSAVAWYQQKPGKAPKLLIYSASSLYSGVPSRFSGSRSGTDFTLTISSLQPEDFATYYCQQSSYSLITFGQGTKVEIKR
One may read the EC50 as the concentration giving half of the maximal effect. High values mean a less potent agent, low ones a more potent agent. Turning to B1, the EC50 is over 1000 nM.

B2: Fab R3C8 (Fab, V domains shown)
VH: EVQLVESGGGLVQPGGSLRLSCAASGFNFSSSSIHWVRQAPGKGLEWVASIYPSYSYTYYADSVKGRFTISADTSKNTAYLQMNSLRAEDTAVYYCARHCLLRSRRCEMSTKTRELNVYRYAMDYWGQGTLVTVSS
VL: DIQMTQSPSSLSASVGDRVTITCRASQSVSSAVAWYQQKPGKAPKLLIYSASSLYSGVPSRFSGSRSGTDFTLTISSLQPEDFATYYCQQWPVGSSYPITFGQGTKVEIKR
The molecule B2 showed an EC50 of over 1000 nM.

B3: Fab 3A2 (Fab, V domains shown)
VH: EVQLVESGGGLVQPGGSLRLSCAASGFNLSSSSMHWVRQAPGKGLEWVASIYPSYSYTYYADSVKGRFTISADTSKNTAYLQMNSLRAEDTAVYYCARVKLQKDKSHQWIRNLVATPYGRYVMDYWGQGTLVTVSS
VL: DIQMTQSPSSLSASVGDRVTITCRASQSVSSAVAWYQQKPGKAPKLLIYSASSLYSGVPSRFSGSRSGTDFTLTISSLQPEDFATYYCQQYGYPITFGQGTKVEIKR
Regarding B3, the EC50 is 4 nM.
